B1: 5B3 (antibody, V domains shown)
VH: QVQLKESGPGLVAPSQSLSITCTVSGFSLTSYGIDWVRQPPGKGLEWLGVIWGGGNTNYNSALMSRLTISKDNSKSQVFLKMNSLQTDDTAMYYCAKANWDSYAMDYWGQGTSVTVSS
VL: DIQMNQSPSSLSASLGDTITITCHASQNINFWLNWYQQKPGNIPKLLIYKASNLHTGVPSRFSGSGSGTGFTLTISSLQPEDIATYYCQQGQSYPLTFGGGTKVEIKR
notes: Entries are printed with leader peptide and part of the mouse constant region; also called LILRB1 antibody 5B3
B2: 4C2 (antibody, V domains shown)
VH: QVQLQQPGAALVKPGASVKLSCKASGYTFTSYWMHWVKQRPGQGLEWIGMIHPNSGSTNYNEKFRSEATLTVDKSSSTVYMQLSSLTSEDSAVYYCARSGDAYYDGLDYWGQGTSVTVSS
VL: B1 VL with S26R, F31V, N34S, P59S, L96W, V104L
notes: Entries are printed with leader peptide and part of the mouse constant region; also called LILRB1 antibody 4C2
B3: 5E11 (antibody, V domains shown)
VH: QVQLKESGPGLVAPSQSLSITCTVSGFSLSSYGVNWVRQPPGKGLEWLGVIWGDGSTNYHSALISRLSISKDNSKSQVFLKLNSLQTDDTATYYCAKPNWDYYAMEYWGQGTSVTVSS
VL: DIQMTQTTSSLSASLGDRVTITCRASQDISNFLNWYQQKPDGPVKLLIYYTSRLHSGVPSRFSGSGSGTDYSLTISNLEQEDIATYFCQQGNTLPWTFGGGTKLEIKR
notes: Entries are printed with leader peptide and part of the mouse constant region; also called LILRB1 antibody 5E11
B4: 5H12 (antibody, V domains shown)
VH: B3 VH
VL: GIVMTQSQKFMSSTVGDRVSITCKASQNVGAAVIWYQQKPGQSPKLLIYSASNRYTGVLDRFTGSGSGTDFTLTISNMQSEDLADYFCQQYSSYPWTFGGGTKLEIKR
notes: Entries are printed with leader peptide and part of the mouse constant region; also called LILRB1 antibody 5H12
B5: 6B7 (antibody, V domains shown)
VH: QIQLVQSGPELKKPGETVKISCKASGYTFTNYGLSWVKQAPGKGLKWMGWINTYSGVTTYADDFKGRFAFSLETSASTAYLQINNLKSEDTATYFCARRSYDYSHYYAMDYWGQGTSVTVSS
VL: ETTVTQSPASLSVATGEKVTIRCITSTDIDDDINWYQQKPGEPPKFLISEGNTLRPGVPSRFSSSGYGTDFVFTIENTLSEDVADYYCLQSNNMPYTFGGGTKLEIKR
notes: Entries are printed with leader peptide and part of the mouse constant region; also called LILRB1 antibody 6B7
B6: 5E6 (antibody, V domains shown)
VH: QVQLQQSAAELVKPGASVKISCKVSGQSFTDHTIHWMKQRPEQGLEWIGYIFPRDGFTEYNERFKGKATLTADKSSSTAYMHLNSLTSEDSAVYFCAGNWDALDYWGPGTSVTVSS
VL: DIVLTQSPATLSVTPGDSVSLSCRASQSISKYLHWYQQKSHESPRLLIKYVSQSISGIPSRFSGSGSGTDFTLSINSVETEDFGIYFCQQSNSWPLTFGAGTKLELKR
notes: Entries are printed with leader peptide and part of the mouse constant region; also called LILRB1 antibody 5E6
B7: 4A11 (antibody, V domains shown)
VH: QVQLKQSGAELVRPGTSVKLSCKASGYTFTDYYINWVKQRPGQGLEWIARIYPGSGNTFYNEKFQDKATLTAEKSSSTAYMQLSSLTSEDSAVYFCANTPSYGSSHWYFDVWGTGTTVTVSS
VL: DIVMTQSHKFMSTSVGDRVSITCKASQDVNTAVAWYQQKPGQSPKLLIYWASTRHTGVPDRFTGSGSGTDFTLTISNVQSEDLADYFCQQYSTYPRTFGGGTKLEIKR
notes: Entries are printed with leader peptide and part of the mouse constant region; also called LILRB1 antibody 4A11
B8: 4A10 (antibody, V domains shown)
VH: QVQLQQPGAELVKPGASVKLSCKASGYTFTNYWMYWVKQRPGQGLEWIGMIHPNSDSTNYNEKFKNKATLTVDRSSSTAYMQLSSLTSEDSAVYCCARGEDNYDYVMDYWGQGTSVTVSS
VL: DIVMTQAAPSVPVTPGESVSISCRSSKSLLHSYGNTHLYWFLQRPGQSPQLLIYRMSNLASGVPDRFSGSGSGTAFTLRISRVEAEDVGVYYCMQHLEYPLTFGAGTKLELKR
notes: Entries are printed with leader peptide and part of the mouse constant region; also called LILRB1 antibody 4A10
B9: 1B10 (antibody, V domains shown)
VH: QVQLQQPGAELVKPGASVKLSCKASGYTFTNYWVQWVKQRPGQGLEWIGMIHPNSGSTNSNEKFKNKATLTVDRSSSTAYMQLSRLTSEDSAVYYCARGDDGYLYYFDYWGQGTTLTVSS
VL: QIVLTQSPALMSASPGEKVTMTCSASSSVSHMYWYQQKPRSSPKPWIYLTSNLASGVPARFSGSGSGTSYSLTISNMEAEDAATYYCQQWSSYAFTFGSGTKLEIKR
notes: The entries called 'variable region' are printed with the leader peptide and part of the mouse constant region; also called LILRB1 antibody 1B10
B10: 6A6 (antibody, V domains shown)
VH: QVQLQQSGPELVKPGASVKISCKASGYSFTSSYIHWVKQRPGQGLEWIGWIYPGSGNTKYNERFKGKATLTADTSSSTAYMHLSSLTSEDSAVYYCARNYGTSYGWYFDVWGTGTTVTVSS
VL: B4 VL with G1D, S13T, A31T, I34A, A51L, L59P, A84T, W96L, G100A, I106L
notes: Entries are printed with leader peptide and part of the mouse constant region; also called LILRB1 antibody 6A6
B11: 3E12 (antibody, V domains shown)
VH: QVQLQQSGAELMKPGASVKLSCKATGYTFTGYWIEWVKQRPGHGLEWIGEILLGSGNTNYNENFKGKATLTADTSSNTAYMQLSSLTTEDSAIYYCASTHDGYWGQGTTLTVSS
VL: QFILTQSPAIMSASPGEKVTITCSASSSVSYMHWFQQKPGTSPKLWIYSTSNLASGVPARFSGSGSGTSYSLTISRMEAEDAATYYCQRRSSYPFTFGSGTKLEIKR
notes: Entries are printed with leader peptide and part of the mouse constant region; also called LILRB1 antibody 3E12
B12: 4D5 (antibody, V domains shown)
VH: QVQLQQPGAELVRPGSSVKLSCKASGYTFTSYWMDWVKQRPGQGLEWIGNIYPSDSATHYNQKFKDKATLTVDKSSSTAYMHLSSLTSEDSAVYYCARGLLQYFDVWGTGTSVTVSS
VL: DIQMTQSPASLSVSVGETVTITCRASENIYSNLAWYQQKQGKSPQLLVYGATNLADGVPSRFSGSGSGTQYSLKINSLQSEDFGSYYCQHFWGIPWTFGGGTKLEIKR
notes: Entries are printed with leader peptide and part of the mouse constant region; also called LILRB1 antibody 4D5
B13: 4H5 (antibody, V domains shown)
VH: QIQLQQSGPELVKPGASVKISCKASGYTFTDYYINWVKQRPGQGLEWIGWIYPGGDNTKYNEKFKDKATLTVDTSSSTTYMQLSSLTSEDSAVYFCARFEDKYSSNYWFAYWGQGTLVTVSA
VL: DILLTQSPAILSVSPGERVSFSCRASQYIGTSIHWYQQRTNGSPRLLIKYASESISGIPSRFSGSGSGTDFTLSINSVESEDVADYYCQQSNRWPFTFGSGTKLEIKR
notes: Entries are printed with leader peptide and part of the mouse constant region; also called LILRB1 antibody 4H5
B14: 6A11 (antibody, V domains shown)
VH: B13 VH with G55S, D56G, D66G, T79A, Y103H
VL: B13 VL with V83I, R93S
notes: Entries are printed with leader peptide and part of the mouse constant region; also called LILRB1 antibody 6A11
B15: 1A8 (antibody, V domains shown)
VH: EVQLVESGGDLVKPGESLKLSCAASGFSFSSYDMSWVRQTPDKRLEWVTTISSGGDYTYFPDILKGRFTISRDNAKHTLYLQLSSLKSEDTAMYYCARWDSNFPHWYFDVWGTGTTVTVSS
VL: DIVLTQSPASLAVSLGQRATISCRASESVDKSGISFLHWYQQKPRQPPKLLIYRASNLESGIPGRFSGSGSRTDFTLSINPVEPDDVATYYCQQSNKDPFTFGGGTKLEIKR
notes: Entries are printed with leader peptide and part of the mouse constant region; also called LILRB2 antibody 1A8
B16: 1G3 (antibody, V domains shown)
VH: EVQLVESGGDLVKPGGSLKLSCAASGFTFSSYDMSWVRQTPDKRLEWVATISSGGSYTFYPDSVKGRFTISRDNAKNTLSLQMSSLKSEDTAIYYCARWDSNYLRWFFDVWGTGTTVTVSS
VL: B15 VL with K31N, S32N, L37M, R45G, P47S, G64A, S78T, P84T, K97D
notes: Entries are printed with leader peptide and part of the mouse constant region; also called LILRB2 antibody 1G3
B17: 10F5 (antibody, V domains shown)
VH: B16 VH with G55A, F59Y, S80Y, N102K, F107Y
VL: B15 VL with K31N, S32N, L37M, R45G, P47S, Y53S, G64A, S78T, P84T, K97E
notes: Entries are printed with leader peptide and part of the mouse constant region; also called LILRB2 antibody 10F5
B18: 2F10 (antibody, V domains shown)
VH: EVQLQQSGPELVKPGASVKISCKASGYTFTDDYMNWVKQSHGKSLEWIGDINPTNGDTNYNQKFKGKATLTVDKSSSTAYMELRGLTSEDSAVYYCARGSSPFTYWGQGTLVTVSA
VL: DIQMTQTTSSLSASLGDRVTISCSASQGISNYLNWYQQKPDGTVKLLIYYTSSLYSGVPSRFSGSGSGTDYSLTISNLEPEDIATYYCQQYSKLPWTFGGGTKLEIKR
notes: Entries are printed with leader peptide and part of the mouse constant region; also called LILRB2 antibody 2F10
B19: 1C8 (antibody, V domains shown)
VH: EVKLVESGGGLVQPGGSLKLSCAASGFTFSDYYMYWVRQTPEKRLEWVAYISNGGGNTYYPDTVKGRFTISRDNAKNTLYLQMSRLKSEDTAMYYCARQLEDWYFDVWGTGTTVTVSS
VL: DIVMTQSHKFMSTSVGDRVSITCKASQDVSTAVAWSQQKPGQSPKLLVYWASARHTGVPDRFTGSGSGADYTLTISSVQAEDLALYYCQQHFSTPLTFGAGTKLELKR
notes: Entries are printed with leader peptide and part of the mouse constant region; also called LILRB2 antibody 1C8
B20: 2G9 (antibody, V domains shown)
VH: B19 VH with Q99N, L100R, E101D
VL: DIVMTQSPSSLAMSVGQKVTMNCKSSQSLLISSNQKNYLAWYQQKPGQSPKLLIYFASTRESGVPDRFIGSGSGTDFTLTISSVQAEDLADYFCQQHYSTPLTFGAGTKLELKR
notes: Entries are printed with leader peptide and part of the mouse constant region; also called LILRB2 antibody 2G9

The text below walks through data of patent publication US20240150462A1 (UNIVERSITY HEALTH NETWORK, published 2024).

Numbering of substitutions follows the chain as printed. Bounds are passed on as bounds.

For the first assay, the target named is T1, Recombinant human Fc-tagged extracellular domain of LILRB1 (human, UniProt Q8NHL6 24-461).
T1 construct: extracellular domain; Bought from R&D Systems; also called LILRB1-Fc; not shown: Fc tag
T1 sequence (Q8NHL6 24-461): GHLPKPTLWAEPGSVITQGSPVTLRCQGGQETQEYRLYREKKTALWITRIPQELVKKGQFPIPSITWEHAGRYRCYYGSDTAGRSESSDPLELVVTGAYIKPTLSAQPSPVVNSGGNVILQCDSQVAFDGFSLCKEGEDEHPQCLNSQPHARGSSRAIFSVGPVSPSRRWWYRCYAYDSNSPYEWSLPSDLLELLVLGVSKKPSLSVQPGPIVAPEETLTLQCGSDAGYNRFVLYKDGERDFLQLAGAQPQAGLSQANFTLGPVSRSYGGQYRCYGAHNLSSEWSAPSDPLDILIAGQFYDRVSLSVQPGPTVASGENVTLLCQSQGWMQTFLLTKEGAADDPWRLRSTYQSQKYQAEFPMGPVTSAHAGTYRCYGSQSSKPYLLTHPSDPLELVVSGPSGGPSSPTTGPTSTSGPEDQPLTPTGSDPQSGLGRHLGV
The assay is described as follows: SPR, Biacore X100; LILRB1-Fc amine-coupled to CM5 chip, antibody injected at 3.7-300 nM. As to the method:
(§1) Dissociation constants (Kd) for mouse anti-human LILRB1 and LIRB2 antibodies were determined using a Biacore X100 surface plasmon resonance instrument (Cytivia). Recombinant human Fc-tagged extracellular domains of LILRB1 or LILRB2 (LILRB1-Fc or LILRB2-Fc; R&D Systems) were immobilized on a Biacore CM5 biosensor chip by amine coupling at a density of 40-50 relative units (RU). Purified mouse monoclonal antibodies were injected over the biosensor in a concentration series of 3.7, 11, 33, 100, and 300 nM in HBS-EP buffer (10 mM HEPS pH 7.4, […], 3 mM EDTA, 0.005% v/v Surfactant P20) at a flow rate of 50 μL/min. Regeneration of the chip was achieved by a 30 s injection of 10 mM glycine-HCl, pH 1.7. Affinity parameters were determined by fitting response data using the accompanying Biacore X100 analysis software.
Take B1: the “-log(Kd)” value amounted to 8.76.

With B2, the “-log(Kd)” value was 12.7.

On to B3, for which the “-log(Kd)” value is less than 3.

B4: the “-log(Kd)” value was 8.26.

With B5, the “-log(Kd)” value came to 6.58.

In the case of B6, the “-log(Kd)” value stood at 8.2.

Regarding B7, the “-log(Kd)” value was determined as 7.76.

B8: the “-log(Kd)” value was 7.89.

With B9, the “-log(Kd)” value is 8.13.

For the molecule B10, the “-log(Kd)” value was determined as 7.98.

For the molecule B11, the “-log(Kd)” value amounted to 11.6.

For the molecule B12, the “-log(Kd)” value was determined as 7.89.

On to B13, for which the “-log(Kd)” value stood at 12.6.

With B14, the “-log(Kd)” value worked out at 12.4.

For a further assay, the target named is T2, Recombinant human Fc-tagged extracellular domain of LILRB2 (human, UniProt Q8N423 22-460).
T2 construct: extracellular domain; Bought from R&D Systems; also called LILRB2-Fc; not shown: Fc tag
T2 sequence (Q8N423 22-460): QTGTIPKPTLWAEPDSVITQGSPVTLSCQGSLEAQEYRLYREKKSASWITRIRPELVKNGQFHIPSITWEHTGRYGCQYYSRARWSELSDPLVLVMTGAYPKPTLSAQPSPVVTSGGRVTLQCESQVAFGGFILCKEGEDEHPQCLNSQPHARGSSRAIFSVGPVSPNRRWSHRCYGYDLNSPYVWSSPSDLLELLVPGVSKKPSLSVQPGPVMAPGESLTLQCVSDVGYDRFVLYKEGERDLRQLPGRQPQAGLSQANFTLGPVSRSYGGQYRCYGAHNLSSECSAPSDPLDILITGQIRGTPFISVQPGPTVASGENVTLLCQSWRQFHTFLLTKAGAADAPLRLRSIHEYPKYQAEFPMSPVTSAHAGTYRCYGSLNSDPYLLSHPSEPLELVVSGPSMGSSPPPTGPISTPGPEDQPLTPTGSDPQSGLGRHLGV
In words: SPR, Biacore X100; LILRB2-Fc amine-coupled to CM5 chip, antibody injected at 3.7-300 nM. As to the method:
as §1
(In general: SPR reads the build-up and loss of mass on a sensor chip optically.)
As for B15, the “-log(Kd)” value came out at 7.79.

With B16, the “-log(Kd)” value stood at 8.05.

As to B17, the “-log(Kd)” value is 7.95.

For the molecule B18, the “-log(Kd)” value turned out to be 8.4.

As for B19, the “-log(Kd)” value was 7.64.

For B20, the “-log(Kd)” value worked out at 8.33.
